What was measured:
HeLa Kyoto [1] = assay: solubility change mitosis vs G1/S (difference of NP-40 vs SDS log2 ratios) (log2 ratio difference); higher = more soluble in mitosis
HeLa Kyoto [2] = assay: thermal stability score vs G1/S (z-score of summed log2 fold changes over temperatures); higher = more thermally stable than in G1/S
HeLa Kyoto [3] = assay: solubility in G1/S (NP-40 vs SDS abundance) (log2 ratio); higher = more soluble; details: cell cycle stage: G1/S
HeLa Kyoto [4] = assay: melting temperature (median over replicates), in situ; higher = more thermally stable
[5] = cell cycle stage: early G1 (4.5 h after nocodazole release)
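Wherever melting temperature (median over replicates), in situ is given: HeLa Kyoto cells synchronized by double thymidine or nocodazole block, proteins quantified by TMT10plex mass spectrometry, three independent biological replicates.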
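Wherever solubility change mitosis vs G1/S (difference of NP-40 vs SDS log2 ratios) is given: synchronized HeLa Kyoto cells (double thymidine block for G1/S, nocodazole release for mitosis), protein amounts in NP-40 versus SDS lysates quantified by mass spectrometry, three biological replicates.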
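Wherever solubility in G1/S (NP-40 vs SDS abundance) is given: HeLa Kyoto cells arrested at G1/S by double thymidine block, proteins quantified by TMT10plex mass spectrometry in mild NP-40 versus SDS extracts, three biological replicates.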
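Wherever thermal stability score vs G1/S (z-score of summed log2 fold changes over temperatures) is given: synchronized HeLa Kyoto cells, proteins quantified by TMT10plex mass spectrometry, three biological replicates, mitosis taken 0.5 h after nocodazole release, G1/S directly after double thymidine block.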

Row | Substance | solubility change mitosis (log2) (HeLa Kyoto [1]) | thermal stability score (HeLa Kyoto [2]; [5]) | thermal stability score (HeLa Kyoto [2]; cell cycle stage: mitosis) | solubility in G1/S (log2) (HeLa Kyoto [3]) | melting temperature (HeLa Kyoto [4]; cell cycle stage: G1/S) | melting temperature (HeLa Kyoto [4]; cell cycle stage: mitosis)
1 | MGKSESQMDITDINTPKPKKKQRWTPLEISLSVLVLLLTIIAVTMIALYATYDDGICKSSDCIKSAARLIQNMDATTEPCTDFFKYACGGWLKRNVIPETSSRYGNFDILRDELEVVLKDVLQEPKTEDIVAVQKAKALYRSCINESAIDSRGGEPLLKLLPDIYGWPVATENWEQKYGASWTAEKAIAQLNSKYGKKVLINLFVGTDDKNSVNHVIHIDQPRLGLPSRDYYECTGIYKEACTAYVDFMISVARLIRQEERLPIDENQLALEMNKVMELEKEIANATAKPEDRNDPMLLYNKMTLAQIQNNFSLEINGKPFSWLNFTNEIMSTVNISITNEEDVVVYAPEYLTKLKPILTKYSARDLQNLMSWRFIMDLVSSLSRTYKESRNAFRKALYGTTSETATWRRCANYVNGNMENAVGRLYVEAAFAGESKHVVEDLIAQIREVFIQTLDDLTWMDAETKKRAEEKALAIKERIGYPDDIVSNDNKLNNEYLELNYKEDEYFENIIQNLKFSQSKQLKKLREKVDKDEWISGAAVVNAFYSSGRNQIVFPAGILQPPFFSAQQSNSLNYGGIGMVIGHEITHGFDDNGRNFNKDGDLVDWWTQQSASNFKEQSQCMVYQYGNFSWDLAGGQHLNGINTLGENIADNGGLGQAYRAYQNYIKKNGEEKLLPGLDLNHKQLFFLNFAQVWCGTYRPEYAVNSIKTDVHSPGNFRIIGTLQNSAEFSEAFHCRKNSYMNPEKKCRVW [MME] | -0.0403 | -0.835 | -0.832 | -0.0691 | 53 °C | 55.9 °C
2 | GOLGB1 | -0.0748 | 1.43 | 4.58 | 0.115 | 48.6 °C | 49.9 °C
3 | MADDQGCIEEQGVEDSANEDSVDAKPDRSSFVPSLFSKKKKNVTMRSIKTTRDRVPTYQYNMNFEKLGKCIIINNKNFDKVTGMGVRNGTDKDAEALFKCFRSLGFDVIVYNDCSCAKMQDLLKKASEEDHTNAACFACILLSHGEENVIYGKDGVTPIKDLTAHFRGDRCKTLLEKPKLFFIQACRGTELDDGIQADSGPINDTDANPRYKIPVEADFLFAYSTVPGYYSWRSPGRGSWFVQALCSILEEHGKDLEIMQILTRVNDRVARHFESQSDDPHFHEKKQIPCVVSMLTKELYFSQ [CASP7] | 0.00474 | -0.531 | -2.43 | 0.0897 | 53.9 °C | 54.2 °C
4 | MSQPPPPPPPLPPPPPPPEAPQTPSSLASAAASGGLLKRRDRRILSGSCPDPKCQARLFFPASGSVSIECTECGQRHEQQQLLGVEEVTDPDVVLHNLLRNALLGVTGAPKKNTELVKVMGLSNYHCKLLSPILARYGMDKQTGRAKLLRDMNQGELFDCALLGDRAFLIEPEHVNTVGYGKDRSGSLLYLHDTLEDIKRANKSQECLIPVHVDGDGHCLVHAVSRALVGRELFWHALRENLKQHFQQHLARYQALFHDFIDAAEWEDIINECDPLFVPPEGVPLGLRNIHIFGLANVLHRPIILLDSLSGMRSSGDYSATFLPGLIPAEKCTGKDGHLNKPICIAWSSSGRNHYIPLVGIKGAALPKLPMNLLPKAWGVPQDLIKKYIKLEEDGGCVIGGDRSLQDKYLLRLVAAMEEVFMDKHGIHPSLVADVHQYFYRRTGVIGVQPEEVTAAAKKAVMDNRLHKCLLCGALSELHVPPEWLAPGGKLYNLAKSTHGQLRTDKNYSFPLNNLVCSYDSVKDVLVPDYGMSNLTACNWCHGTSVRKVRGDGSIVYLDGDRTNSRSTGGKCGCGFKHFWDGKEYDNLPEAFPITLEWGGRVVRETVYWFQYESDSSLNSNVYDVAMKLVTKHFPGEFGSEILVQKVVHTILHQTAKKNPDDYTPVNIDGAHAQRVGDVQGQESESQLPTKIILTGQKTKTLHKEELNMSKTERTIQQNITEQASVMQKRKTEKLKQEQKGQPRTVSPSTIRDGPSSAPATPTKAPYSPTTSKEKKIRITTNDGRQSMVTLKSSTTFFELQESIAREFNIPPYLQCIRYGFPPKELMPPQAGMEKEPVPLQHGDRITIEILKSKAEGGQSAAAHSAHTVKQEDIAVTGKLSSKELQEQAEKEMYSLCLLATLMGEDVWSYAKGLPHMFQQGGVFYSIMKKTMGMADGKHCTFPHLPGKTFVYNASEDRLELCVDAAGHFPIGPDVEDLVKEAVSQVRAEATTRSRESSPSHGLLKLGSGGVVKKKSEQLHNVTAFQGKGHSLGTASGNPHLDPRARETSVVRKHNTGTDFSNSSTKTEPSVFTASSSNSELIRIAPGVVTMRDGRQLDPDLVEAQRKKLQEMVSSIQASMDRHLRDQSTEQSPSDLPQRKTEVVSSSAKSGSLQTGLPESFPLTGGTENLNTETTDGCVADALGAAFATRSKAQRGNSVEELEEMDSQDAEMTNTTEPMDHS [VCPIP1] | -0.0432 | 1.21 | 1.02 | -0.111 | 48.3 °C | 48.8 °C
5 | MADLEAVLADVSYLMAMEKSKATPAARASKKILLPEPSIRSVMQKYLEDRGEVTFEKIFSQKLGYLLFRDFCLNHLEEARPLVEFYEEIKKYEKLETEEERVARSREIFDSYIMKELLACSHPFSKSATEHVQGHLGKKQVPPDLFQPYIEEICQNLRGDVFQKFIESDKFTRFCQWKNVELNIHLTMNDFSVHRIIGRGGFGEVYGCRKADTGKMYAMKCLDKKRIKMKQGETLALNERIMLSLVSTGDCPFIVCMSYAFHTPDKLSFILDLMNGGDLHYHLSQHGVFSEADMRFYAAEIILGLEHMHNRFVVYRDLKPANILLDEHGHVRISDLGLACDFSKKKPHASVGTHGYMAPEVLQKGVAYDSSADWFSLGCMLFKLLRGHSPFRQHKTKDKHEIDRMTLTMAVELPDSFSPELRSLLEGLLQRDVNRRLGCLGRGAQEVKESPFFRSLDWQMVFLQKYPPPLIPPRGEVNAADAFDIGSFDEEDTKGIKLLDSDQELYRNFPLTISERWQQEVAETVFDTINAETDRLEARKKAKNKQLGHEEDYALGKDCIMHGYMSKMGNPFLTQWQRRYFYLFPNRLEWRGEGEAPQSLLTMEEIQSVEETQIKERKCLLLKIRGGKQFILQCDSDPELVQWKKELRDAYREAQQLVQRVPKMKNKPRSPVVELSKVPLVQRGSANGL [ADRBK1] | -0.0655 | 1.35 | 0.436 | -0.107 | 51.6 °C | 51.4 °C
6 | MEPPSCIQDEPFPHPLEPEPGVSAQPGPGKPSDKRFRLWYVGGSCLDHRTTLPMLPWLMAEIRRRSQKPEAGGCGAPAAREVILVLSAPFLRCVPAPGAGASGGTSPSATQPNPAVFIFEHKAQHISRFIHNSHDLTYFAYLIKAQPDDPESQMACHVFRATDPSQVPDVISSIRQLSKAAMKEDAKPSKDNEDAFYNSQKFEVLYCGKVTVTHKKAPSSLIDDCMEKFSLHEQQRLKIQGEQRGPDPGEDLADLEVVVPGSPGDCLPEEADGTDTHLGLPAGASQPALTSSRVCFPERILEDSGFDEQQEFRSRCSSVTGVQRRVHEGSQKSQPRRRHASAPSHVQPSDSEKNRTMLFQVGRFEINLISPDTKSVVLEKNFKDISSCSQGIKHVDHFGFICRESPEPGLSQYICYVFQCASESLVDEVMLTLKQAFSTAAALQSAKTQIKLCEACPMHSLHKLCERIEGLYPPRAKLVIQRHLSSLTDNEQADIFERVQKMKPVSDQEENELVILHLRQLCEAKQKTHVHIGEGPSTISNSTIPENATSSGRFKLDILKNKAKRSLTSSLENIFSRGANRMRGRLGSVDSFERSNSLASEKDYSPGDSPPGTPPASPPSSAWQTFPEEDSDSPQFRRRAHTFSHPPSSTKRKLNLQDGRAQGVRSPLLRQSSSEQCSNLSSVRRMYKESNSSSSLPSLHTSFSAPSFTAPSFLKSFYQNSGRLSPQYENEIRQDTASESSDGEGRKRTSSTCSNESLSVGGTSVTPRRISWRQRIFLRVASPMNKSPSAMQQQDGLDRNELLPLSPLSPTMEEEPLVVFLSGEDDPEKIEERKKSKELRSLWRKAIHQQILLLRMEKENQKLEASRDELQSRKVKLDYEEVGACQKEVLITWDKKLLNCRAKIRCDMEDIHTLLKEGVPKSRRGEIWQFLALQYRLRHRLPNKQQPPDISYKELLKQLTAQQHAILVDLGRTFPTHPYFSVQLGPGQLSLFNLLKAYSLLDKEVGYCQGISFVAGVLLLHMSEEQAFEMLKFLMYDLGFRKQYRPDMMSLQIQMYQLSRLLHDYHRDLYNHLEENEISPSLYAAPWFLTLFASQFSLGFVARVFDIIFLQGTEVIFKVALSLLSSQETLIMECESFENIVEFLKNTLPDMNTSEMEKIITQVFEMDISKQLHAYEVEYHVLQDELQESSYSCEDSETLEKLERANSQLKRQNMDLLEKLQVAHTKIQALESNLENLLTRETKMKSLIRTLEQEKMAYQKTVEQLRKLLPADALVNCDLLLRDLNCNPNNKAKIGNKP [TBC1D4] | -0.0775 | -0.833 | -0.739 | -0.0729 | 51.1 °C | 50.5 °C
7 | MVSWMICRLVVLVFGMLCPAYASYKAVKTKNIREYVRWMMYWIVFALFMAAEIVTDIFISWFPFYYEIKMAFVLWLLSPYTKGASLLYRKFVHPSLSRHEKEIDAYIVQAKERSYETVLSFGKRGLNIAASAAVQAATKSQGALAGRLRSFSMQDLRSISDAPAPAYHDPLYLEDQVSHRRPPIGYRAGGLQDSDTEDECWSDTEAVPRAPARPREKPLIRSQSLRVVKRKPPVREGTSRSLKVRTRKKTVPSDVDS [REEP4] | -0.135 | -1.06 | -1.58 | 0.0372 | 53.4 °C | 53.2 °C
8 | MAERGELDLTGAKQNTGVWLVKVPKYLSQQWAKASGRGEVGKLRIAKTQGRTEVSFTLNEDLANIHDIGGKPASVSAPREHPFVLQSVGGQTLTVFTESSSDKLSLEGIVVQRAECRPAASENYMRLKRLQIEESSKPVRLSQQLDKVVTTNYKPVANHQYNIEYERKKKEDGKRARADKQHVLDMLFSAFEKHQYYNLKDLVDITKQPVVYLKEILKEIGVQNVKGIHKNTWELKPEYRHYQGEEKSD [GTF2F2] | -0.0476 | 0.0893 | 0.0418 | 0.436 | 52.6 °C | 52.6 °C
9 | MAAASVTPPGSLELLQPGFSKTLLGTKLEAKYLCSACRNVLRRPFQAQCGHRYCSFCLASILSSGPQNCAACVHEGIYEEGISILESSSAFPDNAARREVESLPAVCPSDGCTWKGTLKEYESCHEGRCPLMLTECPACKGLVRLGEKERHLEHECPERSLSCRHCRAPCCGADVKAHHEVCPKFPLTCDGCGKKKIPREKFQDHVKTCGKCRVPCRFHAIGCLETVEGEKQQEHEVQWLREHLAMLLSSVLEAKPLLGDQSHAGSELLQRCESLEKKTATFENIVCVLNREVERVAMTAEACSRQHRLDQDKIEALSSKVQQLERSIGLKDLAMADLEQKVLEMEASTYDGVFIWKISDFARKRQEAVAGRIPAIFSPAFYTSRYGYKMCLRIYLNGDGTGRGTHLSLFFVVMKGPNDALLRWPFNQKVTLMLLDQNNREHVIDAFRPDVTSSSFQRPVNDMNIASGCPLFCPVSKMEAKNSYVRDDAIFIKAIVDLTGL [TRAF2] | -0.084 | -0.77 | -1.17 | 0.0627 | 52.5 °C | 52.2 °C

From the supplement of paper PMC5998384
